# From patent US10465005B2, “JAML specific binding agents, antibodies, and uses related thereto” (Emory University, priority 2011, dated 2019)
# Entries after “also recorded” stand apart in the source; their conditions may differ.
# T1: CAR on CHO-CAR cells (Homo sapiens, UniProt P78310)
# T1 construct: The full length gene of CAR was cloned into pcDNA3.1-Hygromycin; expressed in transfected cells
# T1 sequence (P78310 20-365): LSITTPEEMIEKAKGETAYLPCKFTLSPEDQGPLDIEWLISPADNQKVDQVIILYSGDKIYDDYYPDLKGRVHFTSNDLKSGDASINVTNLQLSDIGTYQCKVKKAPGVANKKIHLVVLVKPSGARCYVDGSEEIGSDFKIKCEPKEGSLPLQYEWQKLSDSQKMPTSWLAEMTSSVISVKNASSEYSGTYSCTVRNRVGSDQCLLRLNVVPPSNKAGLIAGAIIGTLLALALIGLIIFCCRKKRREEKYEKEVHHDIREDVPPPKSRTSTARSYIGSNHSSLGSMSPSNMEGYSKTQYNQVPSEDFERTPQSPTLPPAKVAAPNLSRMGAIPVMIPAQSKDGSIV
# T2: JAML D1 domain (Homo sapiens, UniProt Q86YT9)
# T2 construct: made in house; host or cells: HEK293T
# T2 sequence (Q86YT9 20-140): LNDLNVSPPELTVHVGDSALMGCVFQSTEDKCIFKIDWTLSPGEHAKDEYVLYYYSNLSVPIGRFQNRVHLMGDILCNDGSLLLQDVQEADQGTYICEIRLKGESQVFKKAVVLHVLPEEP
# B1: sJAML: recombinant soluble fragment of JAML.D1D2 tagged with 10 His residues at the C-terminus (protein)
# chain: LNDLNVSPPELTVHVGDSALMGCVFQSTEDKCIFKIDWTLSPGEHAKDEYVLYYYSNLSVPIGRFQNRVHLMGDILCNDGSLLLQDVQEADQGTYICEIRLKGESQVFKKAVVLHVLPEEPKELMVHVGGLIQMGCVFQSTEVKHVTKVEWIFSGRRAKEEIVFRYYHKLRMSVEYSQSWGHFQNRVNLVGDIFRNDGSIMLQGVRESDGGNYTCSIHLGNLVFKKTIVLHVSPEEPRTL
# B2: DW100: monoclonal anti-human JAML antibody (IgG1,κ), hybridoma ATCC PTA-13051; VH SEQ ID NO:19, VL SEQ ID NO:22 (antibody, V domains shown)
# VH: DVQLVESGAELVRPGASKLSCKALAYTFTDYEMHWVKQTPVHGLEWIGIIHPGSGGTVYNQKFKGKATLTADKSSSTAYMELSSLTSEDSTVYYCTRRRYYGSSYNWYFDVWGAGN
# VL: VLTQSPASLAASVGETVTITCRASENIYYSLAWYQQKQGKSPQLLIYNANSLEDGVPSRFSGSGSGTQYSLKINSMQPEDTATYFCEQTYDVPLTFGAGTKLEL
# Experiments:
# [1] = molecular target: T1, CAR on CHO-CAR cells; assay: Soluble JAML binding to CHO-CAR by flow cytometry; format: cell-based; conditions: sJAML 20 μg/ml, 1 h at 4° C., DW216 detection, FIG. 7A
# Procedure: CHO-K1 cells stably expressing CAR (CHO-CAR) were incubated with supernatants from PMA activated PLB cells (˜5˜10^7 cell activated in 1 ml, left panel) or recombinant soluble JAML-His (sJAML, 20 μg/ml, right panel) for 1 h at 4° C. JAML binding to CAR on the cell surface was measured by flow cytometry and compared to CHO-CAR cells alone (NoTx). The flow micrograph is representative of 4 independent experiments.
# As it has been established that epithelial CAR is the ligand for JAML on PMN. Whether shed JAML, as well as the recombinant protein could bind to CAR was investigated. To do this, CHO cells stably expressing CAR protein (CHO-CAR) were incubated with either supernatants from PMA activated differentiated PLB-985 (that release high levels of soluble JAML upon activation, (FIG. 2)), or recombinant soluble JAML and stained with DW216 to detect bound JAML. […] The same observation was verified by IF (FIG. 7B). […] The calcium depletion disrupts intercellular junctions of the epithelium and allows for better penetration of soluble JAML.
# [2] = molecular target: T2, JAML D1 domain; assay: Domain specificity ELISA on sJAML-His, sJAML.D1-Fc, sJAML.D2-Fc; format: binding; conditions: sJAML.D2-Fc coated, FIG. 1B
# Procedure: FIG. 1B. sJAML-His and purified soluble, mutant fragments of JAML, tagged with rabbit Fc (membrane distal Ig loop: sJAML.D1-Fc and membrane proximal Ig loop: sJAML.D2-Fc) were coated on Immulon II microtiter wells overnight at 4° C. After blocking and washing, antibodies were added to wells for 1 hour and the assay developed with HRP conjugated goat anti mouse Ig (H+L). After addition of ABTS, microtiter wells were analyzed in a microtiter plate reader at 405 nm wavelength. M3 is polyclonal mouse serum collected from the sJAML-His immunized mouse before the fusion. 9E10 anti Myc was used as control.
# To determine the domain specificity of monoclonal antibodies, soluble full length JAML.D1D2-His (sJAML-His), truncated extracellular fragments: soluble membrane distal fragment JAML.D1-Fc (sJAML.D1-Fc), and soluble membrane proximal fragment JAML.D2-Fc (sJAML.D2-Fc), both tagged with rabbit Fc, were generated and tested for antibody binding. […] Polyclonal serum (M3) was collected from the immunized mouse prior the fusion and was used as the positive control in the binding assay.
Molecule,JAML binding to CHO-CAR [1],JAML domain bound [2]
B1,JAML binding to CHO-CAR was detected in both cases,–
B2,–,binds the D1 domain of JAML; also recorded: specifically binds JAML D1 domain
